B1: Hairpin Ribozyme (parent)
chain: GUCCUCUUUCACGUGCGCGUGAAAGAGAGAAGUGAACCAGAGAAACACACGUUGUGGUAUAUUACCUGGUA

Variants of: B1
Test: self-cleavage, relative activity (ratio to wild type); higher = more cleavage; co-transcriptional

Going from C4G U63A to C3G C50G, the self-cleavage falls from 0.252 to 0.127.

First: C4G C48G
Second: C3A G19A
The self-cleavage of the first is lower: 0.0514 for the first, 0.59 for the second.

Going from C3A A41G to C3U G42A, the self-cleavage falls from 0.7 to 0.123.

Compared with C3U G42U, C3U G32U is lower in self-cleavage: 0.21 for the first, 0.102 for the second.

First: C3U G32A
Second: C4G U7G
The self-cleavage of the first is lower: 0.08 for the first, 0.144 for the second.

First: C3G G21C
Second: C3G G21A
The self-cleavage of the first is lower: 0.154 for the first, 0.173 for the second.

Going from C3U U5C to C3A C37U, the self-cleavage rises from 0.299 to 0.543.

Going from C4A A59U to C4A A59C, the self-cleavage rises from 0.0921 to 0.191.

First: C4A U60G
Second: C4A U60C
The self-cleavage of the first is lower: 0.139 for the first, 0.521 for the second.

Going from C3U U9A to C3U U9C, the self-cleavage rises from 0.299 to 0.387.

First: C4A C65G
Second: C4A A39G
The self-cleavage of the first is higher: 0.179 for the first, 0.134 for the second.

Going from C3A A28U to C4G U67A, the self-cleavage falls from 0.689 to 0.111.

Compared with C4A A31G, C4A C38U is higher in self-cleavage: 0.101 for the first, 0.135 for the second.

Going from C3U U60G to C3U U60C, the self-cleavage rises from 0.331 to 0.705.

Compared with C3U A61G, C3U A61U is higher in self-cleavage: 0.117 for the first, 0.227 for the second.

Compared with C3U A61C, C4A A36U is higher in self-cleavage: 0.164 for the first, 0.197 for the second.

Going from C3U G57C to C4G A35U, the self-cleavage rises from 0.094 to 0.157.

Compared with C4G A35C, C3A A24C is higher in self-cleavage: 0.16 for the first, 0.775 for the second.

First: C4G U33A
Second: C3U C6G
The self-cleavage of the first is lower: 0.154 for the first, 0.288 for the second.

Going from C3A G57A to C3A U70G, the self-cleavage rises from 0.131 to 0.708.

Going from C3A U70C to C3A U70A, the self-cleavage falls from 0.675 to 0.377.

First: C4G U55A
Second: C4G U55C
The self-cleavage of the first is lower: 0.119 for the first, 0.122 for the second.

Going from C4G U53G to C4G U53A, the self-cleavage rises from 0.117 to 0.15.

Compared with C4G U53C, C4G C12U is lower in self-cleavage: 0.264 for the first, 0.187 for the second.

Compared with C3G A36G, C3A A49U is lower in self-cleavage: 0.255 for the first, 0.0975 for the second.

First: C3A U63A
Second: C4A G29A
The self-cleavage of the first is lower: 0.0798 for the first, 0.119 for the second.

First: C3G G17C
Second: C4A A41G
The self-cleavage of the first is higher: 0.198 for the first, 0.13 for the second.

Compared with C4U A23U, C4U A23G is lower in self-cleavage: 0.315 for the first, 0.299 for the second.

First: C3G U67C
Second: C3G U67G
The self-cleavage of the first is higher: 0.104 for the first, 0.102 for the second.

First: C4G C37U
Second: C3A U20C
The self-cleavage of the first is lower: 0.222 for the first, 0.728 for the second.

Compared with C3U U8C, C4G A47C is lower in self-cleavage: 0.253 for the first, 0.13 for the second.

Going from C4G A47U to C4G A49C, the self-cleavage rises from 0.0972 to 0.161.

First: C4G G57U
Second: C3A U8A
The self-cleavage of the first is lower: 0.151 for the first, 0.547 for the second.

Going from C3U C16U to C3A C4A, the self-cleavage falls from 0.628 to 0.204.

First: C3G C37A
Second: C3A U52G
The self-cleavage of the first is lower: 0.162 for the first, 0.538 for the second.

Going from C3G U53A to C4A G42C, the self-cleavage falls from 0.212 to 0.132.

Going from C3G G34U to C3G G34A, the self-cleavage falls from 1.01 to 0.27.

Going from C3G U63C to C3A A26U, the self-cleavage rises from 0.164 to 0.653.

Going from C3A G34U to C4G C10A, the self-cleavage falls from 1.34 to 0.12.

Going from C4G C10G to C3G U14G, the self-cleavage rises from 0.114 to 0.145.

Compared with C4A A26U, C4A A26G is lower in self-cleavage: 0.228 for the first, 0.17 for the second.

First: C4A A26C
Second: C3U G34U
The self-cleavage of the first is lower: 0.13 for the first, 1.17 for the second.

First: C4A C48G
Second: C4A C48U
The self-cleavage of the first is higher: 0.207 for the first, 0.15 for the second.

First: C3G G69C
Second: C4A U5G
The self-cleavage of the first is higher: 0.177 for the first, 0.109 for the second.

Going from C4A U5C to C4G A23C, the self-cleavage rises from 0.23 to 0.233.

Compared with C4G A23G, C4G G25U is lower in self-cleavage: 0.25 for the first, 0.177 for the second.

Compared with C4G C38G, C4A U70G is higher in self-cleavage: 0.104 for the first, 0.154 for the second.

First: C3U G54U
Second: C4G U20G
The self-cleavage of the first is higher: 0.227 for the first, 0.22 for the second.

First: C3U A41C
Second: C3U A41G
The self-cleavage of the first is higher: 0.983 for the first, 0.643 for the second.

Compared with C4G G27U, C4G A11G is lower in self-cleavage: 0.31 for the first, 0.272 for the second.

Compared with C3G A23U, C3G A23G is lower in self-cleavage: 0.28 for the first, 0.126 for the second.

Going from C3U U63A to C3G A45U, the self-cleavage falls from 0.189 to 0.122.

Compared with C4G U70C, C4G C50U is lower in self-cleavage: 0.214 for the first, 0.154 for the second.

Compared with C3U C12G, C3U C12A is higher in self-cleavage: 0.471 for the first, 0.546 for the second.

First: C4A G34C
Second: C4A G34A
The self-cleavage of the first is higher: 0.676 for the first, 0.37 for the second.

Going from C3A A31U to C3A A31C, the self-cleavage falls from 0.155 to 0.144.

Going from C4G U58C to C4G U58A, the self-cleavage falls from 0.403 to 0.108.

First: C3A U60A
Second: C3U A39C
The self-cleavage of the first is higher: 0.515 for the first, 0.199 for the second.

Going from C3U A39G to C3U A39U, the self-cleavage rises from 0.122 to 0.253.

First: C3U U53C
Second: C3A U14C
The self-cleavage of the first is lower: 0.672 for the first, 0.677 for the second.

First: C3A U14A
Second: C4A U53A
The self-cleavage of the first is higher: 0.525 for the first, 0.363 for the second.

Going from C4A U53C to C3A G13U, the self-cleavage rises from 0.206 to 0.568.

First: C3A U53A
Second: C3A U53C
The self-cleavage of the first is lower: 0.662 for the first, 0.664 for the second.

Going from C3A A30U to C4G G19A, the self-cleavage falls from 0.16 to 0.143.

Compared with C4G G19U, C3U G69C is lower in self-cleavage: 0.225 for the first, 0.185 for the second.

Compared with C3G C65U, C3G C65A is higher in self-cleavage: 0.0576 for the first, 0.263 for the second.

Compared with C3G U62G, C3G U62A is lower in self-cleavage: 0.128 for the first, 0.107 for the second.

Compared with C3A A59U, C3A G51C is higher in self-cleavage: 0.126 for the first, 0.615 for the second.

First: C3U C4A
Second: C3U C4U
The self-cleavage of the first is lower: 0.0854 for the first, 0.39 for the second.

Going from C3A A71G to C4G U9G, the self-cleavage falls from 0.715 to 0.164.

Going from C4G U9C to C4A U62G, the self-cleavage falls from 0.274 to 0.1.

First: C3A G25U
Second: C3G A26C
The self-cleavage of the first is higher: 0.406 for the first, 0.276 for the second.

Compared with C3A G29A, C3A G29C is lower in self-cleavage: 0.112 for the first, 0.102 for the second.

First: C3U A23C
Second: C4A A35C
The self-cleavage of the first is higher: 0.408 for the first, 0.127 for the second.

Compared with C4A U63A, C4A U63G is higher in self-cleavage: 0.101 for the first, 0.269 for the second.

Going from C4A U63C to C4G A26G, the self-cleavage rises from 0.115 to 0.16.

First: C3G C66G
Second: C4A G40C
The self-cleavage of the first is higher: 0.0857 for the first, 0.0835 for the second.

Compared with C4A G40A, C4A G40U is higher in self-cleavage: 0.133 for the first, 0.141 for the second.

Going from C4A A28U to C3U A49G, the self-cleavage rises from 0.174 to 0.409.

Going from C3U A49C to C4G G17A, the self-cleavage rises from 0.112 to 0.159.

First: C4A C18U
Second: C4A C18G
The self-cleavage of the first is higher: 0.342 for the first, 0.198 for the second.

First: C4A A23G
Second: C3A C6G
The self-cleavage of the first is lower: 0.209 for the first, 0.455 for the second.

First: C3G G15U
Second: C4G C66G
The self-cleavage of the first is higher: 0.29 for the first, 0.209 for the second.

For C3U G56A, the self-cleavage was 0.16.

— the RNAGym collection of RNA variant scans (doi:10.7554/elife.80360)
